This note sets out measurements from article PMC9938897.

The target in data set [1] is CvkR (Alr3614), MerR-type transcriptional regulator of the Anabaena sp. PCC 7120 CAST system, 150-residue form CvkR-S (Anabaena (Nostoc) sp. PCC 7120). Description: SEC; analytical gel filtration, Superdex 75 10/300 GL, 10 mM Tris-HCl pH 8.8, 100 mM NaCl, 2 mM beta-mercaptoethanol; ~500 uL untagged protein at ~0.6 mg/mL; calibrated with LMW standards; self-association (dimer). (Size exclusion chromatography separates by hydrodynamic size, large species first.)

Data set [2] addresses CvkR (Alr3614) (Anabaena sp. PCC 7120) (UniProt A0ACD6B984). Briefly: DNase I footprinting. As to conditions: EMSA: 10 mM Tris-HCl pH 8.0, 25 mM MgCl2, 50 mM NaCl, 1 mM DTT, 1 mM EDTA, 50 ug/mL poly(dI-dC), 0.01% NP-40, 10% glycerol, 2 nM probe, 25 C 30 min …. For orientation: In EMSA bound probe runs differently from free probe, usually more slowly.
Data set [3] concerns the target CvkRmut (R19A-R20A-Q23A-K40A-R42A-N66A) (Anabaena (Nostoc) sp. PCC 7120). Briefly: SEC; analytical gel filtration, Superdex 75 10/300 GL, 10 mM Tris-HCl pH 8.8, 100 mM NaCl, 2 mM beta-mercaptoethanol; ~500 uL untagged protein at ~0.6 mg/mL; calibrated with LMW standards; self-association (dimer).
Data set [4] addresses CvkR R42E (Anabaena (Nostoc) sp. PCC 7120). Described as above.

Chain of CvkR (Alr3614) (Anabaena sp. PCC 7120) (A0ACD6B984 entry or part of it): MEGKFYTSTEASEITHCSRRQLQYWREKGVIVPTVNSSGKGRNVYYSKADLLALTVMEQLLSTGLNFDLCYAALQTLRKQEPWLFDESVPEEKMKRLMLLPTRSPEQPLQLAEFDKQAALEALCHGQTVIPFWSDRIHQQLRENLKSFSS

In the case of “CvkR (Alr3614), MerR-type transcriptional regulator of the Anabaena sp. PCC 7120 CAST system, 150-residue form CvkR-S (natural protein)”, the stoichiometry N (usually a count of units in the complex or per binding partner) in data set [1] stood at 2. “AACTCCTTTCTCTCGCCAATACTGCAACTGGCGGCGAGAGCAATGAGTAATTTCTGATGCTTCTGTGCTTGTGTAGAACTTTCCTTCCATAAGAAACATCCTATAGAAGCATCTTCTAAAACACATTAGTGCTTTGTATAACATTATGTGTTTTGTATGGTATTTTATTTTTATGAGCCAAAAAACTATTCAATGTCGCTTAATTGCCAGTGAATCTACCCGCCAAAAACTCTGGAAGTTAATGGCAGAATCGAACACACCTCTAATTAACGAACTGCTTCAGCAGC (double strand) [Pcas12k footprint probe]”: the binding entry in data set [2] is reported as “binds”. The substance “CvkRmut (R19A-R20A-Q23A-K40A-R42A-N66A) (natural protein)” showed a stoichiometry N in data set [3] of 2. In data set [4], CvkR R42E (natural protein) gave a stoichiometry N of 2.
